# Where no end group is shown, it is not given here. The star is where a group is joined. CH2F = FC*
# B1: Casp2-HA (mouse Casp2 with a C terminal HA epitope) (protein)
# chain: MAAPSGRSQSSLHRKGLMAADRRSRILAVCGMHPDHQETLKKNRVVLAKQLLLSELLEHLLEKDIITLEMRELIQAKGGSFSQNVELLNLLPKRGPQAFDAFCEALRETRQGHLEDLLLTTLSDIQHVLPPLSCDYDTSLPFSVCESCPPHKQLRLSTDATEHSLDNGDGPPCLLVKPCTPEFYQAHYQLAYRLQSQPRGLALVLSNVHFTGEKDLEFRSGGDVDHTTLVTLFKLLGYNVHVLHDQTAQEMQEKLQNFAQLPAHRVTDSCVVALLSHGVEGGIYGVDGKLLQLQEVFRLFDNANCPSLQNKPKMFFIQACRGDETDRGVDQQDGKNHTQSPGCEESDAGKEELMKMRLPTRSDMICGYACLKGNAAMRNTKRGSWYIEALTQVFSERACDMHVADMLVKVNALIKEREGYAPGTEFHRCKEMSEYCSTLCQQLYLFPGYPPT
# Columns and labels:
# caspase-2 = target: T1, caspase-2 (Homo sapiens, UniProt P42575); conditions: cell-permeable peptide; fluoromethylketone derivative; cited from earlier work
# T1 sequence (P42575 1-452): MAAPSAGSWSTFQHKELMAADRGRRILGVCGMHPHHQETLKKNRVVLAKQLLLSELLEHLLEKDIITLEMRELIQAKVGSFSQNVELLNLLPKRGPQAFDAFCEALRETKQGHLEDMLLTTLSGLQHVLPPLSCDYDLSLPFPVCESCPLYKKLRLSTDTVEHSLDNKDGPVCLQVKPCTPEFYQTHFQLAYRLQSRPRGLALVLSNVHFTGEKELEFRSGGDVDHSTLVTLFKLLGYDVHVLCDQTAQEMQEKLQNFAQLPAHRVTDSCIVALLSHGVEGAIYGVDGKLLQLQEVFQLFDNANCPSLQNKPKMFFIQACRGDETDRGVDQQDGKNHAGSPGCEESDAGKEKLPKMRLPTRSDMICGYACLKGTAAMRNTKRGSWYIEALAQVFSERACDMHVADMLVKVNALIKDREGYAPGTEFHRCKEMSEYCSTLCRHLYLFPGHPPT
# Casp2 = assay: Tunicamycin (ER stress inducer) administration to NC-fed BL6 mice, liver Casp2 expression; format: in vivo, mouse; conditions: non-transgenic 3-month-old NC-fed BL6 mice; tunicamycin 1.25 mg/kg i.p.
# Description: FIGS. 12A-12I are pictorial and graphical diagrams showing elevated Casp2 expression in ER-stressed mice and human NASH. FIG. 12A the results from immunoblot (IB) analysis of whole cell lysates (WCL) from 5-week-old WT and MUP-uPA livers (left) and WCL of livers from 3-month-old WT mice that were i.p. injected with dextrose or tunicamycin (1.25 mg/kg). Results are mean±SEM (dextrose: n=4; tunicamycin: n=5). P: precursor, C: cleaved. […] Results are mean±SEM (WT: n=5; MUP: n=9). […] Casp4 and Casp12 were examined in liver lysates of 5-week-old mice. […] Staining intensity was quantitated using ImageJ as described in FIG. 1.
# RNAs were extracted from liver or fat tissue of indicated mice or human biopsies using TRIZOL reagent according to manufacturer's instruction. cDNAs were synthesized from total RNAs using Super Script VILO cDNA Synthesis Kit (Thermo Fisher Scientific, MA) according to the supplier's instructions. The cDNAs were quantified by real-time PCR analysis using SYBR Green Master Mix (Bio-Rad, CA). Primer sequences that were used for human biopsies are as follows:
# ER stress in MUP-uPA liver peaks in 5- to 6-week-old mice and then declines due to reduced uPA expression in newly regenerated hepatocytes (Nakagawa et al., 2014; Sandgren et al., 1991). […]
# [1] = target: T2, Flag-tagged SREBP2, Q12772
# T2 chain: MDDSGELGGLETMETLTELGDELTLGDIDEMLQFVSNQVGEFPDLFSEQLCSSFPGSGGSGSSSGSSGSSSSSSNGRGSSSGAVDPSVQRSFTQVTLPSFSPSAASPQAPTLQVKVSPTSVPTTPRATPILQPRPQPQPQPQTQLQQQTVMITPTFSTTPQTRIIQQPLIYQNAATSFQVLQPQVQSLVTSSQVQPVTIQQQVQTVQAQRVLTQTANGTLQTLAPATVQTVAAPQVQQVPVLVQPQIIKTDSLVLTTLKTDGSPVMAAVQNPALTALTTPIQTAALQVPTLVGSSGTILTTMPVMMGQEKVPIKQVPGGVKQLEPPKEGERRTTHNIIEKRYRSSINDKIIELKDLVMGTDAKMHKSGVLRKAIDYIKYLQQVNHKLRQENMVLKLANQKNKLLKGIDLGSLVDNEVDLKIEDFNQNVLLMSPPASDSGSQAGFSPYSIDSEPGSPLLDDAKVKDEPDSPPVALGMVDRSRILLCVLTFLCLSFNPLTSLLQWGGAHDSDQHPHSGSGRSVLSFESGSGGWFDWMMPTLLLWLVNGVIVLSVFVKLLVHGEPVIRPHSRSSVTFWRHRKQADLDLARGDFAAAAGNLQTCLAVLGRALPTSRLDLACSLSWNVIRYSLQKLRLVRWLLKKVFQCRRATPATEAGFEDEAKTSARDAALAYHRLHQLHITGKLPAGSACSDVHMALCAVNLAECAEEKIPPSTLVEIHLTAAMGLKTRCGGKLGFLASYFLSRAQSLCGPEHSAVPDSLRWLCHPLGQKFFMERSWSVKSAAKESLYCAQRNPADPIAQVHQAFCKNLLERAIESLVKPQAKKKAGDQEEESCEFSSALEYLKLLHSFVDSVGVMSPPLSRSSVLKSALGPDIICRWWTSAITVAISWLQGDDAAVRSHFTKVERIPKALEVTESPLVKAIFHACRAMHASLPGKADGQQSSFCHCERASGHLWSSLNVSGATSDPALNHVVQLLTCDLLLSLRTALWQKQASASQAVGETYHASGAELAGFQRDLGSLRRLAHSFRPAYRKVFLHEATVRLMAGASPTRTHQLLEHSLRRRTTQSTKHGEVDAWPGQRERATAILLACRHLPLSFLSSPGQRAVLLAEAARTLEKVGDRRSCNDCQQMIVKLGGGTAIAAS
molecule,measurement,setting,value
VDVAD (VDVAD-CH2F) [available as a fluoromethylketone derivative],activity of caspase-2,caspase-2,irreversibly inhibits
tunicamycin,Casp2 protein and RNA in liver,Casp2,induced
B1,SREBP activation/cleavage (immunoblot),[1],"co-transfection of Casp2 with SREBP2 into either SCAP-deficient (293^ΔSCAP) or WT HEK293 cells did not result in SREBP1/2 activation/cleavage, unless an SP expression vector was also included"

# — patent publication US20190351003A1, “METHODS FOR INHIBITING NONALCOHOLIC STEATOHEPATITIS, NONALCOHOLIC FATTY LIVER DISEASE, AND/OR DE NOVO LIPOGENESIS” (The Regents of the University of California, priority 2017, published 2019)
